# Assay results as given in US20230295301A1 (SHANGHAI JUNSHI BIOSCIENCES, published 2023).
# Where a chain is given by its changes, count along the chain named.
# T1: huCTLA-4 ECD (his-tag) (human, UniProt P16410 37-162)
# T1 construct: also called HX1 hCTLA4 his; HX1 huCTLA4 his; not shown: his-tag
# T1 sequence: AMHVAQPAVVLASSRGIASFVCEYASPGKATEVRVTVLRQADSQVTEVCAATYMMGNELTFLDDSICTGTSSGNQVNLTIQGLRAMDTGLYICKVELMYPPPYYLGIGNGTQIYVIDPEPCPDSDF
# T2: huCTLA-4 expressed on cells (human, UniProt P16410 36-223)
# T2 construct: the construct in the cells is not described; also called HuCTLA-4-expressing CHO cells; huCTLA-4-expressing Jurkat effector cells
# T2 sequence: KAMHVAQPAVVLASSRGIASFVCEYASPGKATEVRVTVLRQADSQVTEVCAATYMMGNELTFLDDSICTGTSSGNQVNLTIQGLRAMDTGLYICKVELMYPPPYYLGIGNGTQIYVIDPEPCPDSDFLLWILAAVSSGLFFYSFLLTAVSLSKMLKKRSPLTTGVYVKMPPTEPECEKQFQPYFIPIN
# T3: huCTLA-4 (human, UniProt P16410 36-161)
# T3 construct: also called human CTLA (huCTLA) antigen; huCTLA4 recombinant protein
# T3 sequence: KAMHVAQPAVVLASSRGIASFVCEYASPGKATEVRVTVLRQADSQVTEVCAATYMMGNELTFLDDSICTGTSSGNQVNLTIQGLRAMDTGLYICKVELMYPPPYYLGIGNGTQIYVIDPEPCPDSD
# B1: JS007-3 (antibody, V domains shown)
# VH: DVQLQESGQGLVKPSQSLSLTCSVTGYSITSGYYWNWIRQFPGNKLEWLGYIGYDGSNYYNPSLKNRISITRDTSKNQFFLKLNSVTSEDTATYFCARNYYSGYFDFWGQGTTLTVSS
# VL: DIVMTQSQKFMSTSVGDSVSVTCKASQNVGTYVAWYQQKPGQSPKPLIYSTSYRYSGVPDRFTGSGSGTDFTLTISNVQSEDLAEYFCHQYDTYPLTFGAGTKLELK
# notes: also called JS007-3 chimeric antibody
# B2: JS007-15 (antibody, V domains shown)
# VH: B1 VH with Q9P, G26A, L49M, Y59N, S88T, F95Y, N99D, F107S
# VL: B1 VL
# notes: also called JS007-15 chimeric antibody
# B3: JS007-20 (antibody, V domains shown)
# VH: EVQLQQSGPELVKPGASVKMSCKASGYTFTDYYMKWMKQSHGKSLEWIGHINPNNGDTFYNQKFTGKATLTVDKSSSTASMHLNSLTSEDSAVYYCARGGDGRGTWFAYWGQGTLVTVSS
# VL: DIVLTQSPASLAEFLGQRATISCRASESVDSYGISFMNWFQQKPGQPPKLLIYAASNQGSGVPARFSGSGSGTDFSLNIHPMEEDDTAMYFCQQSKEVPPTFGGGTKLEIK
# notes: also called JS007-20 chimeric antibody
# B4: HuJS007-63 (antibody, V domains shown)
# VH: QVQLQESGPGLVKPSETLSLTCTVSGYSITSGYYWNWIRQPPGKGLEWIGYIGYDGSNNYNPSLKSRVTISRDTSKNQFSLKLSSVTAADTAVYYCARDYYSGYFDSWGQGTTLTVSS
# VL: EIVMTQSPATLSVSPGERATLSCKASQNVGTYVAWYQQKPGQAPRPLIYSTSYRYSGIPARFSGSGSGTEFTLTISSLQSEDFAVYFCHQYDTYPLTFGQGTKLEIK
# notes: 4B7 VH2-3 + 4B7VL9; constant regions not specified
# B5: HuJS007-88 (antibody, V domains shown)
# VH: QVQLQESGPGLVKPSQTLSLTCAVSGYSISSGYYWNWIRQFPGKGLEWMGYIGYDGSNYYNPSLKNRVTMSVDTSKNQFSLKLSSVTAVDTAVYYCARNYYSGYFDSWGQGTTVTVSS
# VL: B4 VL with K24R, F87Y
# notes: 1A5 VH6 + 4B7VL7; constant regions not specified
# B6: huJS007-79 (antibody, human IgG1, kappa, V domains shown)
# VH: B5 VH with F41P, M49I, N66S
# VL: EIVMTQSPATLSVSPGERATLSCRASQNVGTYVAWYQQKPGQAPRPLIYSTSYRYSGIPARFSGSGSGTEFTLTISSLQSEDFAVYYCHQYDTYPLTFGQGTKLEIKR
# B7: HuJS007-108 (antibody, V domains shown)
# VH: B5 VH with S30T, F41P, M49I, Y59N, N99D
# VL: B4 VL
# notes: 4B7 VH2-5 + 4B7VL9; constant regions not specified
# B8: HuJS007-81 (antibody, V domains shown)
# VH: B5 VH with F41P, M49I, N66S
# VL: B4 VL
# notes: 1A5 VH5 + 4B7VL9; constant regions not specified
# B9: huJS007-106 (antibody, human IgG1, kappa, V domains shown)
# VH: B5 VH with S30T, F41P, M49I, Y59N, N99D
# VL: B6 VL
# B10: HuJS007-72 (antibody, V domains shown)
# VH: B4 VH with E16Q, T23A, G26A, P41H
# VL: B4 VL
# notes: 4B7 VH2-4 + 4B7VL9; constant regions not specified
# B11: HuJS007-70 (antibody, V domains shown)
# VH: B4 VH with E16Q, T23A, G26A, P41H
# VL: B4 VL with K24R, F87Y
# notes: 4B7 VH2-4 + 4B7VL7; constant regions not specified
# B12: HuJS007-90 (antibody, V domains shown)
# VH: B5 VH
# VL: B4 VL
# notes: 1A5 VH6 + 4B7VL9; constant regions not specified
# B13: HuJS007-82 (antibody, V domains shown)
# VH: B5 VH
# VL: DIVMTQSPDSLAVSLGERATINCKASQNVGTYVAWYQQKPGQPPKPLIYSTSYRYSGVPDRFSGSGSGTDFTLTISSLQAEDVAVYFCHQYDTYPLTFGAGTKLELK
# notes: 1A5 VH6 + 4B7VL1; constant regions not specified
# B14: HuJS007-86 (antibody, V domains shown)
# VH: B5 VH
# VL: DIQMTQSPSSLSASVGDRVTITCQASQNVGTYVAWYQQKPGKAPKPLIYSTSYRYSGVPSRFSGSGSGTDFTFTISSLQPEDIATYFCHQYDTYPLTFGAGTKLELK
# notes: 1A5 VH6 + 4B7VL5; constant regions not specified
# B15: HuJS007-85 (antibody, V domains shown)
# VH: B5 VH
# VL: B14 VL with S10F, Q24R, D70E, F73L, I83F
# notes: 1A5 VH6 + 4B7VL4; constant regions not specified
# B16: HuJS007-87 (antibody, V domains shown)
# VH: B5 VH
# VL: B13 VL with P46L, F87Y, A100Q, L106I
# notes: 1A5 VH6 + 4B7VL6; constant regions not specified
# B17: HuJS007-83 (antibody, V domains shown)
# VH: B5 VH
# VL: B14 VL with Q24R, A43V, F73L, I83V
# notes: 1A5 VH6 + 4B7VL2; constant regions not specified
# Biological target: T1, huCTLA-4 ECD (his-tag)
# Experiment: competition ELISA, coated huCTLA-4 his, competitor hCD80 Fc
# Experimental: HX1 huCTLA4 his was diluted with PBS (Hyclone) to 1.0 μg/mL, and the dilution was added to a microplate at 100 μL/well. The plate was let stand in an incubator at 37° C. and incubated for 90 min and then washed, and 2% BSA was added to the plate at 200 μL/well. The plate was incubated in an incubator at 37° C. for 90 min and then washed. MX2 hCD80 Fc was diluted with 2% BSA to 5.0 μg/mL, and the dilution was used to dilute samples. The chimeric antibodies and the control antibody ipilimumab were diluted to 100 μg/mL. The dilution performed each time was not higher than 10-fold. Then, the chimeric antibodies and the control antibody were serially diluted 2.5-fold on a sample dilution plate. All the chimeric antibody solutions and the control antibody solution were added to a microplate at 100 μL/well. The plate was incubated in an incubator at 37° C. for 90 min and then washed. An HRP-conjugated goat anti-mouse antibody IgG (Fc specific) (Sigma, Catalog No. A2554) was diluted 5000-fold with 2% BSA, and the dilution was added to the microplate at 100 μL/well. The plate was incubated in an incubator at 37° C. for 60 min and then washed. The color development solution TMB was added at 100 μL/well, during which bubbles were avoided. Color development was allowed at 37° C. for 15 min in the dark and then terminated by adding 2 M hydrochloric acid solution at 100 μL/well, during which bubbles were avoided. Reading (wavelength: 450/620 nm) was done within 10 min using a microplate reader.
row,IC50,Binder
1,190 ng/mL,B1
2,190 ng/mL,B2
3,187 ng/mL,B3

# Biological target: T1, huCTLA-4 ECD (his-tag)
# Experiment: ELISA, coated huCTLA-4 his
# Experimental: HX1 hCTLA4 his was diluted with PBS (Hyclone) to 1.0 μg/mL, and the dilution was added to a microplate at 100 μL/well. The plate was let stand in an incubator at 37° C. and coated for 90 min and then washed, and 2% BSA was added to the plate at 200 μL/well. The plate was incubated in an incubator at 37° C. for 90 min and then washed. The humanized anti-CTLA-4 antibodies in Table 4 and the control antibody (ipilimumab) were diluted with a diluent (2% BSA) to 1000 ng/mL. The dilution performed each time was not higher than 10-fold. Then, the humanized antibodies and the control antibody were serially diluted 2.5-fold on a sample dilution plate. All the humanized antibody solutions and the control antibody solution were added to a microplate at 100 μL/well. The plate was incubated in an incubator at 37° C. for 60 min and then washed. An HRP-conjugated goat anti-human antibody IgG (Fc specific) was diluted 5000-fold with 2% BSA, and the dilution was added to the microplate at 100 μL/well. The plate was incubated in an incubator at 37° C. for 60 min and then washed. The color development solution TMB was added at 100 μL/well, during which bubbles were avoided. Color development was allowed at 37° C. for 15 min in the dark and then terminated by adding 2 M hydrochloric acid solution at 100 μL/well, during which bubbles were avoided. Reading (wavelength: 450/620 nm) was done within 10 min using a microplate reader.
binding result,EC50,Binder
binds,,B4
binds,,B5
binds,,B6
binds,,B7
binds,,B8
binds,,B9
binds,,B10
binds,,B11
binds,,B12
binds,,B13
binds,,B14
binds,,B15
binds,,B16
binds,,B17
,17.2 ng/mL,B1
,19.7 ng/mL,B2
,12.9 ng/mL,B3

# Biological target: T2, huCTLA-4 expressed on cells
# Experiment: FACS on huCTLA-4-expressing CHO cells
# Experimental: 6.2 FACS Detection of Binding of Chimeric Antibodies to huCTLA-4-Expressing Cells HuCTLA-4-expressing cells (constructed in-house by Junmeng; CHO from ATCC) were co-incubated with each of the chimeric antibodies in Table 3 and the control antibody (ipilimumab) (serially diluted 3-fold from an initial concentration of 10 μg/mL) at room temperature for 30 min, and then a fluorescent secondary antibody (PE-anti human IgG) was added to detect the binding of the chimeric antibodies to the huCTLA-4-expressing cells.
row,EC50,Binder
1,249 ng/mL,B1
2,189 ng/mL,B2
3,486 ng/mL,B3

# Biological target: T3, huCTLA-4
# Experiment: FACS blocking, huCTLA4 recombinant protein on CD80-expressing CHO cells; CD80-expressing CHO cells
# Experimental: (§1) The chimeric antibodies in Table 3 and the control antibody ipilimumab (serially diluted 3-fold from an initial concentration of 30 μg/mL) were each added to CD80- or CD86-expressing CHO cells (constructed in-house by Junmeng) together with a certain concentration of huCTLA4 recombinant protein. After they were co-incubated at room temperature for 30 min, a fluorescent secondary antibody (PE-anti human IgG4) (Southern biotech) was added to determine the abilities of the chimeric antibodies to block the binding of huCTLA-4 to the CD80/CD86-expressing cells.
row,IC50,Binder
1,0.699 ng/mL,B1
2,0.398 ng/mL,B2
3,1.21 ng/mL,B3

# Biological target: T3, huCTLA-4
# Experiment: FACS blocking, huCTLA4 recombinant protein on CD86-expressing CHO cells; CD86-expressing CHO cells
# Experimental: as §1
row,IC50,Binder
1,0.196 ng/mL,B1
2,0.0816 ng/mL,B2
3,0.253 ng/mL,B3
